Experimental data published in patent publication US20210388087A1 (Chugai, published 2021).

B1: dBBDu183H V95F/dBBDu072L (antibody, name in Kabat numbering, V domains shown)
VH: QVQLVESGGGLVQPGRSLRLSCAASGFTFSNAWMHWVRQAPGKGLEWVAQIKDKGNAYAAYYAPSVKGRFTISRDDSKNSIYLQMNSLKTEDTAVYYCHYFHYASASTVLPAFGVDAWGQGTTVTVSS
VL: DIVMTQSPLSLPVTPGEPASISCQASQELVHMNRNTYLHWYQQKPGQAPRLLIYKVSNRFPGVPDRFSGSGSGTDFTLKISRVEAEDVGVYYCAQGTSVPFTFGQGTKLEIK
B2: dBBDu183H V100cE/dBBDu072L (antibody, name in Kabat numbering, V domains shown)
VH: QVQLVESGGGLVQPGRSLRLSCAASGFTFSNAWMHWVRQAPGKGLEWVAQIKDKGNAYAAYYAPSVKGRFTISRDDSKNSIYLQMNSLKTEDTAVYYCHYVHYASASTELPAFGVDAWGQGTTVTVSS
VL: DIVMTQSPLSLPVTPGEPASISCQASQELVHMNRNTYLHWYQQKPGQAPRLLIYKVSNRFPGVPDRFSGSGSGTDFTLKISRVEAEDVGVYYCAQGTSVPFTFGQGTKLEIK
B3: dBBDu183H V95Y/dBBDu072L (antibody, name in Kabat numbering, V domains shown)
VH: QVQLVESGGGLVQPGRSLRLSCAASGFTFSNAWMHWVRQAPGKGLEWVAQIKDKGNAYAAYYAPSVKGRFTISRDDSKNSIYLQMNSLKTEDTAVYYCHYYHYASASTVLPAFGVDAWGQGTTVTVSS
VL: DIVMTQSPLSLPVTPGEPASISCQASQELVHMNRNTYLHWYQQKPGQAPRLLIYKVSNRFPGVPDRFSGSGSGTDFTLKISRVEAEDVGVYYCAQGTSVPFTFGQGTKLEIK
B4: dBBDu183H V95W/dBBDu072L (antibody, name in Kabat numbering, V domains shown)
VH: QVQLVESGGGLVQPGRSLRLSCAASGFTFSNAWMHWVRQAPGKGLEWVAQIKDKGNAYAAYYAPSVKGRFTISRDDSKNSIYLQMNSLKTEDTAVYYCHYWHYASASTVLPAFGVDAWGQGTTVTVSS
VL: DIVMTQSPLSLPVTPGEPASISCQASQELVHMNRNTYLHWYQQKPGQAPRLLIYKVSNRFPGVPDRFSGSGSGTDFTLKISRVEAEDVGVYYCAQGTSVPFTFGQGTKLEIK
B5: dBBDu183H V95T/dBBDu072L (antibody, name in Kabat numbering, V domains shown)
VH: QVQLVESGGGLVQPGRSLRLSCAASGFTFSNAWMHWVRQAPGKGLEWVAQIKDKGNAYAAYYAPSVKGRFTISRDDSKNSIYLQMNSLKTEDTAVYYCHYTHYASASTVLPAFGVDAWGQGTTVTVSS
VL: DIVMTQSPLSLPVTPGEPASISCQASQELVHMNRNTYLHWYQQKPGQAPRLLIYKVSNRFPGVPDRFSGSGSGTDFTLKISRVEAEDVGVYYCAQGTSVPFTFGQGTKLEIK
B6: dBBDu183H V95K/dBBDu072L (antibody, name in Kabat numbering, V domains shown)
VH: QVQLVESGGGLVQPGRSLRLSCAASGFTFSNAWMHWVRQAPGKGLEWVAQIKDKGNAYAAYYAPSVKGRFTISRDDSKNSIYLQMNSLKTEDTAVYYCHYKHYASASTVLPAFGVDAWGQGTTVTVSS
VL: DIVMTQSPLSLPVTPGEPASISCQASQELVHMNRNTYLHWYQQKPGQAPRLLIYKVSNRFPGVPDRFSGSGSGTDFTLKISRVEAEDVGVYYCAQGTSVPFTFGQGTKLEIK
B7: dBBDu183H V95R/dBBDu072L (antibody, name in Kabat numbering, V domains shown)
VH: QVQLVESGGGLVQPGRSLRLSCAASGFTFSNAWMHWVRQAPGKGLEWVAQIKDKGNAYAAYYAPSVKGRFTISRDDSKNSIYLQMNSLKTEDTAVYYCHYRHYASASTVLPAFGVDAWGQGTTVTVSS
VL: DIVMTQSPLSLPVTPGEPASISCQASQELVHMNRNTYLHWYQQKPGQAPRLLIYKVSNRFPGVPDRFSGSGSGTDFTLKISRVEAEDVGVYYCAQGTSVPFTFGQGTKLEIK
B8: dBBDu183H V95H/dBBDu072L (antibody, name in Kabat numbering, V domains shown)
VH: QVQLVESGGGLVQPGRSLRLSCAASGFTFSNAWMHWVRQAPGKGLEWVAQIKDKGNAYAAYYAPSVKGRFTISRDDSKNSIYLQMNSLKTEDTAVYYCHYHHYASASTVLPAFGVDAWGQGTTVTVSS
VL: DIVMTQSPLSLPVTPGEPASISCQASQELVHMNRNTYLHWYQQKPGQAPRLLIYKVSNRFPGVPDRFSGSGSGTDFTLKISRVEAEDVGVYYCAQGTSVPFTFGQGTKLEIK
B9: dBBDu183H V100cF/dBBDu072L (antibody, name in Kabat numbering, V domains shown)
VH: QVQLVESGGGLVQPGRSLRLSCAASGFTFSNAWMHWVRQAPGKGLEWVAQIKDKGNAYAAYYAPSVKGRFTISRDDSKNSIYLQMNSLKTEDTAVYYCHYVHYASASTFLPAFGVDAWGQGTTVTVSS
VL: DIVMTQSPLSLPVTPGEPASISCQASQELVHMNRNTYLHWYQQKPGQAPRLLIYKVSNRFPGVPDRFSGSGSGTDFTLKISRVEAEDVGVYYCAQGTSVPFTFGQGTKLEIK
B10: dBBDu183H V95G/dBBDu072L (antibody, name in Kabat numbering, V domains shown)
VH: QVQLVESGGGLVQPGRSLRLSCAASGFTFSNAWMHWVRQAPGKGLEWVAQIKDKGNAYAAYYAPSVKGRFTISRDDSKNSIYLQMNSLKTEDTAVYYCHYGHYASASTVLPAFGVDAWGQGTTVTVSS
VL: DIVMTQSPLSLPVTPGEPASISCQASQELVHMNRNTYLHWYQQKPGQAPRLLIYKVSNRFPGVPDRFSGSGSGTDFTLKISRVEAEDVGVYYCAQGTSVPFTFGQGTKLEIK
B11: dBBDu183H V100cD/dBBDu072L (antibody, name in Kabat numbering, V domains shown)
VH: QVQLVESGGGLVQPGRSLRLSCAASGFTFSNAWMHWVRQAPGKGLEWVAQIKDKGNAYAAYYAPSVKGRFTISRDDSKNSIYLQMNSLKTEDTAVYYCHYVHYASASTDLPAFGVDAWGQGTTVTVSS
VL: DIVMTQSPLSLPVTPGEPASISCQASQELVHMNRNTYLHWYQQKPGQAPRLLIYKVSNRFPGVPDRFSGSGSGTDFTLKISRVEAEDVGVYYCAQGTSVPFTFGQGTKLEIK
B12: dBBDu183H V95N/dBBDu072L (antibody, name in Kabat numbering, V domains shown)
VH: QVQLVESGGGLVQPGRSLRLSCAASGFTFSNAWMHWVRQAPGKGLEWVAQIKDKGNAYAAYYAPSVKGRFTISRDDSKNSIYLQMNSLKTEDTAVYYCHYNHYASASTVLPAFGVDAWGQGTTVTVSS
VL: DIVMTQSPLSLPVTPGEPASISCQASQELVHMNRNTYLHWYQQKPGQAPRLLIYKVSNRFPGVPDRFSGSGSGTDFTLKISRVEAEDVGVYYCAQGTSVPFTFGQGTKLEIK
B13: dBBDu183H V95S/dBBDu072L (antibody, name in Kabat numbering, V domains shown)
VH: QVQLVESGGGLVQPGRSLRLSCAASGFTFSNAWMHWVRQAPGKGLEWVAQIKDKGNAYAAYYAPSVKGRFTISRDDSKNSIYLQMNSLKTEDTAVYYCHYSHYASASTVLPAFGVDAWGQGTTVTVSS
VL: DIVMTQSPLSLPVTPGEPASISCQASQELVHMNRNTYLHWYQQKPGQAPRLLIYKVSNRFPGVPDRFSGSGSGTDFTLKISRVEAEDVGVYYCAQGTSVPFTFGQGTKLEIK
B14: dBBDu183H V95Q/dBBDu072L (antibody, name in Kabat numbering, V domains shown)
VH: QVQLVESGGGLVQPGRSLRLSCAASGFTFSNAWMHWVRQAPGKGLEWVAQIKDKGNAYAAYYAPSVKGRFTISRDDSKNSIYLQMNSLKTEDTAVYYCHYQHYASASTVLPAFGVDAWGQGTTVTVSS
VL: DIVMTQSPLSLPVTPGEPASISCQASQELVHMNRNTYLHWYQQKPGQAPRLLIYKVSNRFPGVPDRFSGSGSGTDFTLKISRVEAEDVGVYYCAQGTSVPFTFGQGTKLEIK

Target: T1, Human CD3eg linker (human)
T1 construct: single-chain construct; also called recombinant human CD3
T1 chain: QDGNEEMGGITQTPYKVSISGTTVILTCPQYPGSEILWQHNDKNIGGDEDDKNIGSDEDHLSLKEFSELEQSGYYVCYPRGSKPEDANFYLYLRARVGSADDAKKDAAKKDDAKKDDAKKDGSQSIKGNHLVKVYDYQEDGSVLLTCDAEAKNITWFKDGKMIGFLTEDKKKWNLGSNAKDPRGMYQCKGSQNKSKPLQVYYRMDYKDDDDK
Assay: SPR, vs unmutated H183/L072

Going from B1 to B2, the “fold change of affinity” value rises from 0 fold to 0.8 fold.

B3 and B4 are the same in “fold change of affinity” value: 0 fold for the first, 0 fold for the second.

B5 and B6 are the same in “fold change of affinity” value: 0 fold for the first, 0 fold for the second.

B7 and B8 are the same in “fold change of affinity” value: 0 fold for the first, 0 fold for the second.

Compared with B9, B10 is lower in “fold change of affinity” value: 1.8 fold for the first, 0 fold for the second.

Going from B11 to B12, the “fold change of affinity” value falls from 0.8 fold to 0 fold.

B13 and B14 are the same in “fold change of affinity” value: 0 fold for the first, 0 fold for the second.
